Source: article PMC314469, “Protein Interaction Networks by Proteome Peptide Scanning” (PLoS Biology, 2004)

T1: amphyphisin SH3 (AMPH_HUMAN), P49418
T1 chain: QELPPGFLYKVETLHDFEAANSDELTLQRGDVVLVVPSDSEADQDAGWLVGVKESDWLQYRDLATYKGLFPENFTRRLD


How the values were obtained:
[1] = molecular target: T1, amphyphisin SH3 (AMPH_HUMAN), P49418; experiment: SPOT array
[2] = molecular target: endophilin SH3 (SH3G2_HUMAN), Q99962; experiment: SPOT array

Binder | normalised SPOT signal, Boehringer light units (BLU); mean over the file's lines of this peptide [1] | normalised SPOT signal, Boehringer light units (BLU); mean over the file's lines of this peptide [2]
ELEQLRRPPGTAER [Q9NZQ6 1526-1539] | 15.8 | 126
EQVDLIRPWRRLLE [Q9NU22 852-865] | 131 | 147
EMEPPPKPPRSSSA [Q9H7I0 90-104] | 4690 | 298
ELTIIERPVRRSLK [Q9HCF0 45-58] | 700 | 61.6
ELPRPRRPPLQWRY [Q9NSY0 103-117] | 1080 | 5930
ENDNIERPVRRRHS [Q9NR92 11-24] | 88.7 | 59.3
EKDHIRRPMNAFMI [Q9UEG5 39-52] | 30.2 | 67
EHRPPEKPPRPPRP [Q8TEL4 107-121] | 9830 | 9880
EKIPFERPFRRPNA [Q9NVW8 327-340] | 948 | 123
EQKRPLRPRRKGRK [Q9P2K1 987-1000] | 11900 | 1010
AALLFLRPPRVRGH [Q9NPN2 39-52] | 8020 | 82.4
EHRPLKRPRPRLGP [Q9UHV6 43-56] | 22 | 82
EQGGLLRPERDHVE [Q9ULV5 88-101] | 79.3 | 66.9
AGPRLPRPPREGST [Q9H224 58-71] | 2230 | 1130
EKPKLRRPSDRSNG [Q9H9V7 590-603] | 10.1 | 80.5
EKGQPSRPTKSKDA [Q9NSC3 29-42] | 82.2 | 143
EPPAPRRPASLAQR [Q9NP57 254-267] | 37.1 | 831

The next lines start with the values.

normalised SPOT signal, Boehringer light units (BLU); mean over the file's lines of this peptide [1] | normalised SPOT signal, Boehringer light units (BLU); mean over the file's lines of this peptide [2] | Binder
166 | 86.2 | ELAHLVRPQKSRPY [P42858 194-207]
57.1 | 0.6 | EKPILDRPTRISQP [Q9Y403 100-113]
12300 | 3980 | ELHVPIRPPRPSSP [O00485 108-122]
4.3 | 0 | EQFKIKRPAAWVDL [O43301 404-417]
103 | 164 | EKGELGRPGRKGRP [Q9Y215 121-134]
374 | 59.4 | EPGLPVRPPGGGQS [O95954 457-471]
136 | 1680 | EIMSPRKPPLFLTK [BAC04837 210-224]
44.4 | 2240 | EPPPPQKPPPPNSK [Q03111 455-469]
203 | 805 | AGPRPRRPGSLPGW [Q14333 377-390]
47.3 | 86.4 | EQGSLKRPVSRKVG [O15021 1020-1033]
16.3 | 85.5 | EIAKLKRPTALKKV [Q93073 574-587]
33.6 | 92.4 | EQPPPGRPPLRLED [Q9Y334 62-76]
104 | 40.1 | EPEEPKRPVPAERG [Q16584 619-632]
50.4 | 22.2 | ENESPLKPPGISMD [Q92610 35-49]
5580 | 3370 | AGPGPARPPVPPRP [P52849 60-74]
32.2 | 159 | EQYIPSRPLKTQEL [Q9Y259 145-158]
1820 | 601 | EMTPPPKPPRLYLP [Q9UM03 505-519]
139 | 108 | EIGFPGRPGRPGMN [P39060 984-997]
145 | 158 | EMPHLARPIKVESP [Q08050 469-482]
31 | 446 | EQRPLKRPRLGPPD [Q96PC8 10-23]
129 | 178 | ELYLLFRPFKGYEG [Q93062 39-52]
-0 | -0 | ELYPISRPLKKTWE [Q15047 309-322]
52.6 | 62.9 | EIPKPIKPPTYQVL [O60504 440-454]
59.7 | 1080 | AGNLPSRPPPLSSP [Q96LQ5 87-101]
40 | 36.9 | ELPRPRRPPPEDEE [P22460 83-97]
